These results are taken from US20160136234A1.

Targets include Pim-1 (h) (human) (UniProt P11309); PKCβI (h) (human) (UniProt P05771); Syk (h) (human) (UniProt P43405); CaMKIIδ (h) (human) (UniProt Q13557).
Common to all, as to assay: cell-based or functional assay
In the next assay the target is T1, BrSK2 (h) (human) (UniProt Q8IWQ3).
T1 sequence (looked up): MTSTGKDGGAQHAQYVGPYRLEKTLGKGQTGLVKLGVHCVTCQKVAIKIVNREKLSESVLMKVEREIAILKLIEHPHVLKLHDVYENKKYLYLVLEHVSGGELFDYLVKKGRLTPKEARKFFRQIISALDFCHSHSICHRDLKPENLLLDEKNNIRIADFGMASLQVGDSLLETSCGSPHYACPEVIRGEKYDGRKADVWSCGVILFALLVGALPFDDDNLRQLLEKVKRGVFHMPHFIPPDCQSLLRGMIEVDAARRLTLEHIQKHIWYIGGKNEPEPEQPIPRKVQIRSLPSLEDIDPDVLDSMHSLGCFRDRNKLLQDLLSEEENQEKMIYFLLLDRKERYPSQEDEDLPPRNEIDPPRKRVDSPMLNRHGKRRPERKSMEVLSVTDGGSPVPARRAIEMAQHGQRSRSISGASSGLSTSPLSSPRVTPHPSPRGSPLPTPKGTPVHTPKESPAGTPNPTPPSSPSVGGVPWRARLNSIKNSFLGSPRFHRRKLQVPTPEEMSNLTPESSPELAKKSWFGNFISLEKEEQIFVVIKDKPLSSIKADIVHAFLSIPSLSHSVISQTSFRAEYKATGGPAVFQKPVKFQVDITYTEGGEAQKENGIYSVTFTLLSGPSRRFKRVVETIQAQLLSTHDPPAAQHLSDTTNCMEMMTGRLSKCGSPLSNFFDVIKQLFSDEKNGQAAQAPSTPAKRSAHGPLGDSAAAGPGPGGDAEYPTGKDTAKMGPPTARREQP

Another assay has as its target T2, TSSK2 (h) (human) (UniProt Q96PF2).
T2 sequence (looked up): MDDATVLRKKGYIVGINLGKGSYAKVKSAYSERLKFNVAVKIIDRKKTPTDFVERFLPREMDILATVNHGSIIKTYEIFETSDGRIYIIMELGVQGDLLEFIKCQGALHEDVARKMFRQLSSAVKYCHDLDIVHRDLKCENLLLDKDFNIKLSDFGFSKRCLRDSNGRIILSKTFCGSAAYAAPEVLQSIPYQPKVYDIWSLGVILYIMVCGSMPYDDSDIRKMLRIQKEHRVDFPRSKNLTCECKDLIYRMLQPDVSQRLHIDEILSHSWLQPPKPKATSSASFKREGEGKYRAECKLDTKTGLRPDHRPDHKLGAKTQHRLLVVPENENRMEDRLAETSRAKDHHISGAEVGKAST

The target of a further assay is T3, TAO2 (h) (human) (UniProt Q9UL54).
T3 sequence (looked up): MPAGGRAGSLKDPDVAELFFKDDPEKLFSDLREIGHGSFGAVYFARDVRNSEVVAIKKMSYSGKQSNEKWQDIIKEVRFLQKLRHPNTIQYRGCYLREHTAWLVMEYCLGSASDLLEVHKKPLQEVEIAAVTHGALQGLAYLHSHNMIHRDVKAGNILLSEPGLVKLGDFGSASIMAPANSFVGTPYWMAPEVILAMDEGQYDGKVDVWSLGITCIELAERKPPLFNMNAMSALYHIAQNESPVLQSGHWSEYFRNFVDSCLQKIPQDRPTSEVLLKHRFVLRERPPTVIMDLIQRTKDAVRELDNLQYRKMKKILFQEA

A further assay has as its target T4, GCK (h) (human) (UniProt Q12851).
T4 sequence (looked up): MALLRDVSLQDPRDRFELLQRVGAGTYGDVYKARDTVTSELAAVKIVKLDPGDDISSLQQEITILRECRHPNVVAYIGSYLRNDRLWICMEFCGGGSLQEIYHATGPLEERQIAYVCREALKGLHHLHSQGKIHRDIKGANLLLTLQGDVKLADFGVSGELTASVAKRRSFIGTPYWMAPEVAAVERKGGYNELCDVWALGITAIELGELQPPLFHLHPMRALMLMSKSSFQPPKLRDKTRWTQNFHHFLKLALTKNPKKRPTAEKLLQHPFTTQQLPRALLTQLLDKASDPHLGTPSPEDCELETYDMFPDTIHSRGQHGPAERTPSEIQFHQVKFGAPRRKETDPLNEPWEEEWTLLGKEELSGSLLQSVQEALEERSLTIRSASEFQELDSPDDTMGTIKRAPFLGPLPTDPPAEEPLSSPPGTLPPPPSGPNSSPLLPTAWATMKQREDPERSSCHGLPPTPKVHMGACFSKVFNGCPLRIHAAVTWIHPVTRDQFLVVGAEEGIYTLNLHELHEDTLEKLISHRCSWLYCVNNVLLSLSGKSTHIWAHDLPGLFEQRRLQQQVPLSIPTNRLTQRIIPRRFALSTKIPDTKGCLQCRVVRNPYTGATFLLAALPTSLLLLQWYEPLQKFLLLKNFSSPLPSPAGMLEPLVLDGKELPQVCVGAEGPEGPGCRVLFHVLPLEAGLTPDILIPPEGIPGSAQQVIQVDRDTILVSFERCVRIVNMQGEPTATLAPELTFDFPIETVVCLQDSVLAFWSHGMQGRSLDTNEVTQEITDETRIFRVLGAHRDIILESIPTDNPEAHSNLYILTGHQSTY

The target in another assay is T5, Ret (h) (human) (UniProt P07949).
T5 sequence (looked up): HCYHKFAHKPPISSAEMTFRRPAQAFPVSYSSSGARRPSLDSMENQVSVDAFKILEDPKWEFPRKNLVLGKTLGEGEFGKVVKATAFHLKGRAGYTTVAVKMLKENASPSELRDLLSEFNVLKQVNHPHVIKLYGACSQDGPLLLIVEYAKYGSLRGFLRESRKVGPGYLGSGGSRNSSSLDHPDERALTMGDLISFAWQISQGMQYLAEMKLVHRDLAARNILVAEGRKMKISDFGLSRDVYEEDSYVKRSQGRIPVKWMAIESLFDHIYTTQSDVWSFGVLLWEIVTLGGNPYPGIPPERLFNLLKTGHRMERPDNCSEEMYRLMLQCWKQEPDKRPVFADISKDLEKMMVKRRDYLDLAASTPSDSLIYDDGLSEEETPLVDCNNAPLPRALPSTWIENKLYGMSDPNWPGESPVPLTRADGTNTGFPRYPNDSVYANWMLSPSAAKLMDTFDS

For the substance MMI-0300 (peptide), the % activity at 100 µM amounted to 83% in the assay with BrSK2 (h) (human); 98% with TSSK2 (h) (human); 8% with Pim-1 (h) (human); 78% in the assay with PKCβI (h) (human); 70% with TAO2 (h) (human); 70% with GCK (h) (human). For the same substance, the % activity at 100 µM with Syk (h) (human) came to 24%; in the assay with CaMKIIδ (h) (human), 1%; with Ret (h) (human), 140%.
